Reference: patent US12467929
Values belong to the substance of their own block, whether it stands above or below them.

Legend:
[1] = biological target: recombinant UBE3A protein (Homo sapiens (Human)) (UniProt Q05086); assay: 3-step Simoa; capture GTX; UBE3A 31.3 ng/ml
[2] = biological target: recombinant UBE3A protein (Homo sapiens (Human)) (UniProt Q05086); assay: Simoa; capture GTX + helper beads; 3E5 0.2 ug/ml; UBE3A 0.00128 ng/ml
[3] = biological target: recombinant UBE3A protein (Homo sapiens (Human)) (UniProt Q05086); assay: Simoa; capture GTX; SBG 75 pm; UBE3A 20.0 ng/ml
[4] = biological target: recombinant UBE3A protein (Homo sapiens (Human)) (UniProt Q05086); assay: Simoa; capture GTX, no helper beads; 3E5 0.4 ug/ml; UBE3A 0.800 ng/ml
[5] = biological target: recombinant UBE3A protein (Homo sapiens (Human)) (UniProt Q05086); assay: Simoa; capture GTX; SBG 75 pm; UBE3A 0.00640 ng/ml
[6] = biological target: recombinant UBE3A protein (Homo sapiens (Human)) (UniProt Q05086); assay: Simoa; capture GTX; SBG 75 pm; UBE3A 0.800 ng/ml
[7] = biological target: recombinant UBE3A protein (Homo sapiens (Human)) (UniProt Q05086); assay: Simoa head-to-head, Table 11; capture GTX; UBE3A 0.16 ng/ml
[8] = biological target: recombinant UBE3A protein (Homo sapiens (Human)) (UniProt Q05086); assay: Simoa head-to-head, Table 11; capture MS 2F6; UBE3A 0.16 ng/ml
[9] = biological target: recombinant UBE3A protein (Homo sapiens (Human)) (UniProt Q05086); assay: Simoa head-to-head, Table 11; capture MS 2F6; UBE3A 500 ng/ml
[10] = biological target: recombinant UBE3A protein (Homo sapiens (Human)) (UniProt Q05086); assay: Simoa head-to-head, Table 10; capture MS 2F6; UBE3A 500 ng/ml
[11] = biological target: recombinant UBE3A protein (Homo sapiens (Human)) (UniProt Q05086); assay: Simoa; capture GTX; SBG 150 pm; UBE3A 20.0 ng/ml
[12] = biological target: recombinant UBE3A protein (Homo sapiens (Human)) (UniProt Q05086); assay: Simoa; capture GTX, no helper beads; 3E5 0.4 ug/ml; UBE3A 0.00128 ng/ml
[13] = biological target: recombinant UBE3A protein (Homo sapiens (Human)) (UniProt Q05086); assay: Simoa; capture GTX, no helper beads; 3E5 0.4 ug/ml; UBE3A 4.00 ng/ml
[14] = biological target: recombinant UBE3A protein (Homo sapiens (Human)) (UniProt Q05086); assay: Simoa; capture GTX, no helper beads; 3E5 0.2 ug/ml; UBE3A 20.0 ng/ml
[15] = biological target: recombinant UBE3A protein (Homo sapiens (Human)) (UniProt Q05086); assay: Simoa; capture GTX; SBG 100 pm; UBE3A 20.0 ng/ml
[16] = biological target: recombinant UBE3A protein (Homo sapiens (Human)) (UniProt Q05086); assay: Simoa; capture GTX, no helper beads; 3E5 0.2 ug/ml; UBE3A 0.160 ng/ml
[17] = biological target: recombinant UBE3A protein (Homo sapiens (Human)) (UniProt Q05086); assay: Simoa; capture GTX + helper beads; 3E5 0.4 ug/ml; UBE3A 0.00640 ng/ml
[18] = biological target: recombinant UBE3A protein (Homo sapiens (Human)) (UniProt Q05086); assay: Simoa; capture GTX; 3E5 0.1 ug/ml; UBE3A 20.0 ng/ml
[19] = biological target: recombinant UBE3A protein (Homo sapiens (Human)) (UniProt Q05086); assay: Simoa head-to-head, Table 10; capture MS 2F6; UBE3A 0.032 ng/ml
[20] = biological target: recombinant UBE3A protein (Homo sapiens (Human)) (UniProt Q05086); assay: Simoa; capture GTX, no helper beads; 3E5 0.4 ug/ml; UBE3A 0.00640 ng/ml

Chain of UniProt Q05086 (Q05086 whole entry): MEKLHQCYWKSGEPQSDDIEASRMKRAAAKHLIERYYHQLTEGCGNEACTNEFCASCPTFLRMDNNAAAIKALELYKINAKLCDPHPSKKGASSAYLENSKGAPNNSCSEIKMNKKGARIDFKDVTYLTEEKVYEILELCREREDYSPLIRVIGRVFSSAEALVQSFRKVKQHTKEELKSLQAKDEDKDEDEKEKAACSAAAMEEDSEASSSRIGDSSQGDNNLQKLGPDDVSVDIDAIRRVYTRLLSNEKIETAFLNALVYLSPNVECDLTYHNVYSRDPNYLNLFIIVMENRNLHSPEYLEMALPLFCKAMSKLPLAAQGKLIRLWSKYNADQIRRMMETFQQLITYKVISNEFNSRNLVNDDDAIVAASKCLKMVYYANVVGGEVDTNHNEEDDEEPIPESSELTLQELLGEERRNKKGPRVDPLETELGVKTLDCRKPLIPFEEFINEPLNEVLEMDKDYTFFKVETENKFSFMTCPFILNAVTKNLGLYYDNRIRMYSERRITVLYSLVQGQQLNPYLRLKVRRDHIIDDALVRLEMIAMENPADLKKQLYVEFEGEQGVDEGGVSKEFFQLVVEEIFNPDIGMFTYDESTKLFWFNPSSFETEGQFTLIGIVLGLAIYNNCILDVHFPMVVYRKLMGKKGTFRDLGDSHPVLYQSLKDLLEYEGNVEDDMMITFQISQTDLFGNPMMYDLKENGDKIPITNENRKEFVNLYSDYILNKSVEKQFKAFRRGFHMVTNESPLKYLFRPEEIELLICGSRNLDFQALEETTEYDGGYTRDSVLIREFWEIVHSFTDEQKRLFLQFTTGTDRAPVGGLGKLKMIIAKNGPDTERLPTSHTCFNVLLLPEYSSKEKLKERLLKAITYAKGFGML

AEB1 [1]: 0.0425
AEB2 [1]: 0.046
Ave AEB [1]: 0.0443
Signal to Background [1]: 20.3
Substance: NB500-240 (Novus) (antibody)

AEB1 [2]: 0.0127
AEB2 [2]: 0.0115
Average AEB [2]: 0.0121
Signal to Background [2]: 1.25
AEB1 [3]: 2.44
AEB2 [3]: 2.81
AEB3 [3]: 2.75
Average AEB [3]: 2.67
Signal to Background [3]: 611
AEB1 [4]: 0.335
AEB2 [4]: 0.338
Average AEB [4]: 0.337
Signal to Background [4]: 17.2
AEB1 [5]: 0.0059
AEB2 [5]: 0.0047
AEB3 [5]: 0.0074
Average AEB [5]: 0.006
Signal to Background [5]: 1.36
AEB1 [6]: 0.078
AEB2 [6]: 0.115
AEB3 [6]: 0.126
Average AEB [6]: 0.106
Signal to Background [6]: 24.3
AEB1 [7]: 0.0288
AEB2 [7]: 0.0291
Ave AEB [7]: 0.0289
Signal to Background [7]: 3.53
AEB1 [8]: 0.0071
AEB2 [8]: 0.0078
Ave AEB [8]: 0.0074
Signal to Background [8]: 1.96
AEB1 [9]: 8.9
AEB2 [9]: 8.6
Ave AEB [9]: 8.75
Signal to Background [9]: 2310
AEB1 [10]: 11
AEB2 [10]: 10.9
Ave AEB [10]: 10.9
Signal to Background [10]: 809
AEB1 [11]: 5.87
AEB2 [11]: 5.57
AEB3 [11]: 5.72
Average AEB [11]: 5.72
Signal to Background [11]: 431
AEB1 [12]: 0.0195
AEB2 [12]: 0.0213
Average AEB [12]: 0.0204
Signal to Background [12]: 1.04
AEB1 [13]: 1.1
AEB2 [13]: 1.11
Average AEB [13]: 1.11
Signal to Background [13]: 56.7
AEB1 [14]: 4.96
AEB2 [14]: 5
Average AEB [14]: 4.98
Signal to Background [14]: 514
AEB1 [15]: 3.96
AEB2 [15]: 3.97
AEB3 [15]: 4.1
Average AEB [15]: 4.01
Signal to Background [15]: 478
AEB1 [16]: 0.0675
AEB2 [16]: 0.0686
Average AEB [16]: 0.068
Signal to Background [16]: 7.03
AEB1 [17]: 0.0326
AEB2 [17]: 0.0263
Average AEB [17]: 0.0294
Signal to Background [17]: 1.51
AEB1 [18]: 5.11
AEB2 [18]: 5.62
AEB3 [18]: 5.2
Average AEB [18]: 5.31
Signal to Background [18]: 276
AEB1 [19]: 0.0162
AEB2 [19]: 0.0146
Ave AEB [19]: 0.0154
Signal to Background [19]: 1.14
AEB1 [20]: 0.0228
AEB2 [20]: 0.0232
Average AEB [20]: 0.023
Signal to Background [20]: 1.18
Substance: anti-UBE3A antibody 3E5 (SAB1404508-100 ug, Millipore-Sigma)
